# Laboratory results taken from publication PMC4051164, “Multiple transcription factors directly regulate Hox gene lin-39 expression in ventral hypodermal cells of the C. elegans embryo and larva, including the hypodermal fate regulators LIN-26 and ELT-6”.
# T1: ZTF-17 (Caenorhabditis elegans, UniProt P45972 1-705)
# T1 sequence: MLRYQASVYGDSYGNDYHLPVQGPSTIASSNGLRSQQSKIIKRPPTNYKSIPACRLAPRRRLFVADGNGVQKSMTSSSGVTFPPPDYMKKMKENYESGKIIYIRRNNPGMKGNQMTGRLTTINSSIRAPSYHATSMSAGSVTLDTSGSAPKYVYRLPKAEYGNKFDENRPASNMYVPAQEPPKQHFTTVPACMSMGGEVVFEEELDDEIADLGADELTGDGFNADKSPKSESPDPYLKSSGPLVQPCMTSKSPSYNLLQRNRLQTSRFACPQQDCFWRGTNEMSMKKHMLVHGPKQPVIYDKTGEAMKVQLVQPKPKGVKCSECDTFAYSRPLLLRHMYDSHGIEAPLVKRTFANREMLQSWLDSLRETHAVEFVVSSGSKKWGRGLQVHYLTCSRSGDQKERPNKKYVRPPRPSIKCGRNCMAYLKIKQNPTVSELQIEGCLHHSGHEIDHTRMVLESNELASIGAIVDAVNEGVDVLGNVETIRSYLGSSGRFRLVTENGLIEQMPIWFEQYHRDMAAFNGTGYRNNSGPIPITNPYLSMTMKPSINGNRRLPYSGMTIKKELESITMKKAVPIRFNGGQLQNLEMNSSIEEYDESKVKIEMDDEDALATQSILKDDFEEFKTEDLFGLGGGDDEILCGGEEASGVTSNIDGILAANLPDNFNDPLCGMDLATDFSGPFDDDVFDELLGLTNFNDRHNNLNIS
# B1: YF4-2 (dsDNA)
# DNA 1: GAGCAAGAGATGTGCTCTCGGCTCCACGAACCTCTTTGATCTATGCCGACAGTGGGGGAGATTGGAGAAGAAGCATGCTCCACCCTTCACGTGTATCAGTACGTCTGCGTCTTCTTGTGCGTGCCGCCCGGATTAGAAGACATGAAGTGGGAGGGCGATAGAGGAAATTCCGATGGCAATACCAAC
# DNA 2: GTTGGTATTGCCATCGGAATTTCCTCTATCGCCCTCCCACTTCATGTCTTCTAATCCGGGCGGCACGCACAAGAAGACGCAGACGTACTGATACACGTGAAGGGTGGAGCATGCTTCTTCTCCAATCTCCCCCACTGTCGGCATAGATCAAAGAGGTTCGTGGAGCCGAGAGCACATCTCTTGCTC
# B2: YF4-4 (dsDNA)
# DNA 1: GCTCCACCCTTCACGTGTATCAGTACGTCTGCGTCTTCTTGTGCGTGCCGCCCGGATTAGAAGACATGAAGTGGGAGGGCGATAGAGGAAATTCCGATGGCAATACCAAC
# DNA 2: GTTGGTATTGCCATCGGAATTTCCTCTATCGCCCTCCCACTTCATGTCTTCTAATCCGGGCGGCACGCACAAGAAGACGCAGACGTACTGATACACGTGAAGGGTGGAGC
# B3: YF4-3 (dsDNA)
# DNA 1: GAGCAAGAGATGTGCTCTCGGCTCCACGAACCTCTTTGATCTATGCCGACAGTGGGGGAGATTGGAGAAGAAGCATGCTCCACCCTTCACGTGTATCAGTACG
# DNA 2: CGTACTGATACACGTGAAGGGTGGAGCATGCTTCTTCTCCAATCTCCCCCACTGTCGGCATAGATCAAAGAGGTTCGTGGAGCCGAGAGCACATCTCTTGCTC
# B4: ECR2 (dsDNA)
# DNA 1: CCCATATGCTTCCTGCTGTGTGTGGCACGAGCGCCAATAA
# DNA 2: TTATTGGCGCTCGTGCCACACACAGCAGGAAGCATATGGG
# Experiments:
# ZTF-17 [1] = target: T1, ZTF-17; experiment: EMSA; 50 mM KCl, 20 mM HEPES pH 7.9, 0.2 mM EDTA, 0.5 mM DTT, 3 mM MgCl2, 1 ug poly(dI-dC), 0.5 ug/ul BSA, 0-800 ng protein, 20 ul, 20 min on ice (4 C); conditions: protein: recombinant; tags: N-terminal 6His (pQE-80L); label: 32P; blunt
# ZTF-17 [2] = target: T1, ZTF-17; experiment: EMSA; also competes vs YF4-2; 50 mM KCl, 20 mM HEPES pH 7.9, 0.2 mM EDTA, 0.5 mM DTT, 3 mM MgCl2, 1 ug poly(dI-dC), 0.5 ug/ul BSA, 0-800 ng protein, 20 ul, 20 min on ice (4 C); conditions: protein: recombinant; tags: N-terminal 6His (pQE-80L); label: 32P (probe); blunt
# ZTF-17 [3] = target: T1, ZTF-17; experiment: competition; cold competitor vs YF4-2; 50 mM KCl, 20 mM HEPES pH 7.9, 0.2 mM EDTA, 0.5 mM DTT, 3 mM MgCl2, 1 ug poly(dI-dC), 0.5 ug/ul BSA, 0-800 ng protein, 20 ul, 20 min on ice (4 C); conditions: protein: recombinant; tags: N-terminal 6His (pQE-80L); blunt
# ALR-1 = ALR-1 (Caenorhabditis elegans, UniProt Q21836 1-362); experiment: EMSA; self competes; 50 mM KCl, 20 mM HEPES pH 7.9, 0.2 mM EDTA, 0.5 mM DTT, 3 mM MgCl2, 1 ug poly(dI-dC), 0.5 ug/ul BSA, 0-800 ng protein, 20 ul, 20 min on ice (4 C); conditions: protein: recombinant; tags: N-terminal 6His (pQE-80L); label: 32P; blunt
# Sequence of ALR-1 (Q21836 whole entry): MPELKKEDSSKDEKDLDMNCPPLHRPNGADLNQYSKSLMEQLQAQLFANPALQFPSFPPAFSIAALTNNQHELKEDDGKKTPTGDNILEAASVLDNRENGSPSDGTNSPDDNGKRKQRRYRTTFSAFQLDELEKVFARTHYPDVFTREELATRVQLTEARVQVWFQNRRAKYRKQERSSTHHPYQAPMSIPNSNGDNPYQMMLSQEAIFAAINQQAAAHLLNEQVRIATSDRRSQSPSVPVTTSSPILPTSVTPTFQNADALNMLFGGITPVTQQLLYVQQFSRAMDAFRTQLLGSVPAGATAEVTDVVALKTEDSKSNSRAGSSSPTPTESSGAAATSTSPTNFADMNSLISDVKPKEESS
binder,measurement,setting,value
B1,binding result,ZTF-17 [1],binds
B2,binding result,ZTF-17 [2],binds
B3,binding result,ZTF-17 [3],no binding
B4,binding result,ALR-1,binds
